Data reported in the nanobody polyreactivity screen of Harvey et al. (2022).

test: yeast display, Sf9 membrane polyspecificity reagent, FACS + sequencing; frameworks hold sequencing errors
Procedure, shortened: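 Nanobodies came from a synthetic yeast display library in Saccharomyces cerevisiae BJ5465, induced with galactose for 36–48 hours and stained for 1 hour at 4 °C with 10% biotinylated, detergent-solubilized Sf9 membrane reagent. Cells were enriched on streptavidin microbeads and then FACS-sorted, with low and high (top ~1%) gates set on anti-HA fluorescence for expression and streptavidin fluorescence for reagent binding. Each polyreactivity label reflects the gate a clone came from. Genes were amplified by colony PCR, sequenced by MiSeq 2 × 250 and filtered by CDR length.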

Sequence | polyreactivity (PSR sort gate)
QVQLVETGGGLVQAGGSLRLSCAASGSIFSGNAMGRSRPAPGKERELVGAITGSGGSTYYADSVKGRFTITRDNAKNTVYLQMNSLKPVDTAVYYCAVLFRTFYYWGQGTQVTVSS | high polyreactivity
QVQLVETGGGLVQAGGSLRLSCAASGSIFVLYAMVWSRQAPGKERELVAAISKRTGSSYYADSVKGRFTISRDHAKHTVYLQTNSLKPEDTAVYYCAARGRQYRYYDLDYWGQGTQVTLSS | low polyreactivity
QVQLVETGGGLVQAGGSLRLSCAASGSIFWSNAMGWYRQAPGKERELVAAITSGGRTYYADSVKGRFTISRDNAKNTVYLQMNSLKPEDTAVYYCAAYWNSATGFDYWGQVTQVTVSS | high polyreactivity
QVQLVETGGGLVQAGGSLRLSCAASGSSFGSYAMGWYREAPGKERELVAAISSSGASTYYADSVKGRFTISRDNAKITVYLQMNSLKPEDTAVYYCNAARRYPTRGGYWGQGTQVTVSS | high polyreactivity
QVQLVETGGGLVQAGGSLRLSCAASGSTFFINAMGWYRQAPGKERELVAAITSTDSTTYADSVKGRFTISRDNAKNTVYLQMNSLKPEDTAVYYCAKESIGQDPVSGAWARHEYDYWGQGTQVTVSS | low polyreactivity
QVQLVETGGGLVQAGGSLRLSCAASGSTFGWNAMGWYRQAPGKERELVAAITGGGSTYYADSVKGRFTISRDNAKNTVYLQMNSLKPEDTAVYYCEGDYWGQGTQVTVSS | low polyreactivity
QVQLVETGGGLVQAGGSLRLSCAASGSTLAPYVMGWYRQAPGKERELVAVISTRTGRTYYADSVKGRFTISRDNAKNTVYLQMNSLKPEDTAVYYCAAPVYPYQVQTYDYWGQGTQVTVSS | high polyreactivity
QVQLVETGGGLVQAGGSLRLSCAASGTLSSYAMGWYRPAPGTERELVAAISLSGGSTYADSVKGRFTISRDNAKNTVYLQMNSLKPEDTAVYYCAATSSFRYDYWGQGTQVTVSS | low polyreactivity
QVQLVETGGGLVQAGGSLRLSCAASRSTIADNAMGWYRQAPGKERELVAAITRSGVRTYYADSVKGRFTISRDNAKNTVYLQMNSLKPEDTAVYYCAKRTYPSRIYDYWGQGTQVTVSS | low polyreactivity
QVQLVETGGGLVQAGGSLRLSCAPSGITFYVYAMGWYTQAPGKERELVAAISSGSSTYYADSVKGSFTISRDNAKNTVYLQMNSLKPEDTAVYYCAARYRKYLSEYCGQGTQVTVSS | high polyreactivity
QVQLVETGGGLVQAGGSLRLSCAPSGNTIIRYAMGWYRQAPGKERELVAAISYSGGRTYYADSVKGRFTISRDNAKNTVYLQMNSLKPEDTAVYYCNAASRYGGDYWGPGTQVTVSS | high polyreactivity
QVQLVETGGGLVQAGGSLRLSCDASVSTFRYYTMGWYRQAPGKERELVASIRRGGSTNYADSVKGRFTISRDNAKNTVYLQMNSLKPEDTAVYYCNAKKGVYNGDAAKYDYWGPGTQVTVSS | high polyreactivity
QVQLVETGGGLVQAGGSLRLSCPASGRIFEDNAMGWYRQEPGKERELVAAIDFSGGDTYYADSVKGRFTISRDNAKNTVYLQMNSLKPEDTAVYYCAAGRSGWGYDSWGQGTQVTVSS | low polyreactivity
QVQLVETGGGLVQAGGSLRVSCAASGSTFSGYAMGWYRQAPGKERELVAAITRSGGRTYYADSVKGRFTISRDNAKNTVYLQMNSLLPEDTAVYYCATDRAYYHSYGRFGYWGQGTHVTVSS | high polyreactivity
QVQLVETGGGLVQAGGTLRLSCAPSGYTIYFYALGWDIQAPGTERELVAAISGSGGRTYYADSVKGRFTISRDNAKNTVYLQMNSLKPEDTAVYYCAARKYKRIYRISSGIGYYWGQGTQVTVSS | high polyreactivity
QVQLVETGGGLVQAGVSLRLSCAASGRTWGYDMGWYRQAPGKERELVAAIRNGASTYYADSVKGRFTISRDNAKNTVYLQMNSLKPEDTAVYYCAADYTVRVVATYDYWGQGTQVTVSS | low polyreactivity
QVQLVETGGGVVQAGGSLRISCAASGRIFLYYTMGWYRQAPGIERELVATIRSGDSTIYADAVKGRFTISRDNAKNTVYLQMNTLTPEDTAVYYCAADWDIFQQGANGAPYDYWGQGTQVTVSS | low polyreactivity
QVQLVETGGVLVQAGGSLRLSCAASGSIFQQNAMGGYRQAPGKERELVASISSGGRTNYADSVKGRCTISRDNAKNTVYLQMNSLKPEDTAVYYCAKTRIRYKPLHFYYWGQGTQVTVSS | low polyreactivity
QVQLVETGRGLVQAGGSLRLSCAASGLILVPNTMGWYRQAPGTERELVAAISYSGGGPYYADSVKGRFTLSRDNATNTVYLQMNSLKPEDTAVYSCAAYDKRESPPYGYWGQGTQVTVSS | low polyreactivity
QVQLVETGRGLVQAGGSLRLSSAASGSTFGPNAMGWYRQAHGKVRELVAAITWSGSTTYYADSVKGRFTISRDIAKNTVYLQMNSLKPEDTPVYYCAALRGYRSNWRYGYWGQGTQVTVSS | low polyreactivity
QVQLVETWGGLVQAGGSLRLSCPASGSIFPRKAMGWYRQAPGKERELVAGISSGGSTNYADSVKGRFTISRDNAKNTVYLQMNSLKPEDTAVYYCAARQWIRNLGFGYSIYNYWGQGTQVTVSS | high polyreactivity

Sequence | polyreactivity (PSR sort gate)
QVQLVGSGGGLVQAGGSLRLSCAASGRTFRAYAMGWYRQAPGKERELVAAIRSSGGSTYADSVKGRFTISRDNAKNTVYLQMNSLKPEDTAVYYFAKPIAPARNAYPAYDYWGQGTQVTVSS | high polyreactivity
QVQLVGSGGGLVQAGGSLRLSCAASGSTIKYYAMGWYRQAPGKERELVARITSDGGSTFYADSVKGRFTISRDNAKNTAYVQMNSLKPEDPAVYYCNTAYAFRHWWFYPMDYWGQGTQVTVSA | high polyreactivity
QVQLVHSGGRLVQAGGRLRLSCAASGSTFSSYARGRYIQGPRKERELVAAISWNGGSTYYADSVKGRFTISRDNAKNTVYLQMNSLKPQDTAVYYCAAIYFRNTYSYGMDYWGQGTQVTVSS | high polyreactivity
QVQLVKSGGGLVQAGGSLRLSCAASVRTILYNAIGWYRQAPGKESELVAAITGGGSTYYADSVKGRFTISRDNAKNTVYLQMNSLKPEDTAVYYCAADLSVVRYDYWGQGTQVTVSS | low polyreactivity
QVQLVLSGGGLVQAGGSLRLSCAASGNTIIRYAMGWYRQEPGKESELVAAISYSGGRTYYADSVKGRFTISRDNAKNTVYLQMNSLKPEDTAVYYCAARYYRSGYRKKIYYWGQGTQVTVSS | high polyreactivity
QVQLVQSFGGLVQAGGSLRLSCAASGRIFWPYAMGWYRQPPGKERELVAAITGSGSRTYYADSVKGRFTISRDYAKNTVYLHMNSLNREDTAVYYCAATSSTDYDYWGQGTQVTVSS | low polyreactivity
QVQLVQSGAGLVQAGGSLRLSCAPSGRTFWRYPMGLYRQAPGKERELVASISARGGSTYYADSVKGRFTISRDNAKNTVYLQMNSLKPEDTAVYYCKRQSWFTVGGFTYRYDYWGQGTQVTVSS | high polyreactivity
QVQLVQSGGGLVQAGGSLRLICAASGSNFYGNAMGWYRQAPGKERELVAAISRGGGYTYYADSVKGRFTISRDNAKNTVYLEMNSLKPEDTAVYYCDATRYLHPWYYPYYYWGQVTQVTVSS | low polyreactivity
QVQLVQSGGGLVQAGGSLRLRCAASGRIFTPYAMGWNRQAPGQDRELVAAISASGTRTYYADSVKGRFTISRDNAKNTVYLQMKSLQAEDSAVYSCAAYKSGEPSDYWGQGTQVTVSS | high polyreactivity
QVQLVQSGGGLVQAGGSLRLSCAASGFTFRFYAMGWYRQATGKERELVASINWSGGRTYYADSVKGRFTISRDNAKNTVYLEMNSLKPVDTAVYYCATQYLIQTKYYSWGQGTQVTVSS | high polyreactivity
QVQLVQSGGGLVQAGGSLRLSCAASGNIFKGYAMRWYRQAPVKERELVAAISKSGGSTYYADSVKGRFTMSRDNAKNTVYLQLNSLKPADTAVYYSNTYTYAGYNYWGQGTQVTVSS | high polyreactivity
QVQLVQSGGGLVQAGGSLRLSCAASGRIFKYNAMGWYRQAPGKERDLVAVITSGGSTYYADSVKGRFTISRDNAKNTFYLQMNSQKPEDTAVYSCAKKYYKVHKFDYWGQGTQVTVSS | low polyreactivity
QVQLVQSGGGLVQAGGSLRLSCAASGRIFNNYAMGWYRQAPRKERELLAAISGSGGSTYYADSVKGRFTISRDNAKNTVYLQMNCMKPEDTAVYYCSTSGPQYYSRNFDYWGQGTQVTVSS | low polyreactivity
QVQLVQSGGGLVQAGGSLRLSCAASGRISIIYAMVWYRQAPGKERELVARISGSGGSTNYADSVKGRFTISRDNAKNTVYLQMNSLKPEDTAVYYCAARHYAVRRSRYPGKLGYYWVQGTQVTVSS | high polyreactivity
QVQLVQSGGGLVQAGGSLRLSCAASGSTFSTYAMGWYRQAPGKERELVAAISRYGGLTNYADSVKGRFTISRDNAKNTVYLQMNSLKPEDTAVYYCAARRYDTGNGYDYWGQGTQVTVSS | high polyreactivity
QVQLVQSGGGLVQAGGSLRLSCADSGFIFFTNAMGRYRQAPGQDREFVAAISDSSGSTYYADSVKGRFTISRDNAKNTVYLQMNSLKPEDTAVYYCAAEYPQVTIIGYYYYWGQGTQVTVSS | low polyreactivity
QVQLVQSGGGLVQAGGSLSLSCAASGYIFISYAMGWNRQAPGQEREFVAAITGDGGSTYADSVKGRFTISRDNAKKTVYGQMNSLKPEDTAVYYCAKKGNASRYFIYDYWGQGTQVTVSS | low polyreactivity
QVQLVQSGGGLVQAGVSLRLSCAPSGFTFYKYAMGWYRQAPGKERELVAAISGSGTSTYYADSVKGRFTISRHNAKNTVYLQMNSLKPEDTAVYYCATRIVFTRRRMYSWGQGTQVNVSS | high polyreactivity
QVQLVQSGGGLVQEGGSLRLSCAASGSTLSIYAMGWYRQAPGKERELVASITTSGSSTYYADSVKGRFTISRDNAKNTVYLQMNSLKPEDTAVYYCAKRKSYRSQPWGYDYWGQGTQVTVSS | high polyreactivity
QVQLVQSWGGLVQAGGSLRLICAASGSIIAYNAMGWYRQAPGKEREMVAAITISGGSTYYADSVKGRFTISRDNAKNNVYLQMNSLKPEDTAVYYSAAAIPGARSRRSYGKYFYWGQGTQVTVSS | low polyreactivity
